{"source": "patent US20260159591A1", "about": "(FIBROCOR THERAPEUTICS, published 2026)", "key": {"[1]": {"biological_target": "T1, murine ITGA11 expressed in CHO cells (murine, UniProt P61622 23-1188)", "T1 construct": "whole, on cells; Only the alpha chain is named for these cells; also called mouse ITGA11; CHO cells expressing murine ITGA11", "T1 sequence (looked up)": "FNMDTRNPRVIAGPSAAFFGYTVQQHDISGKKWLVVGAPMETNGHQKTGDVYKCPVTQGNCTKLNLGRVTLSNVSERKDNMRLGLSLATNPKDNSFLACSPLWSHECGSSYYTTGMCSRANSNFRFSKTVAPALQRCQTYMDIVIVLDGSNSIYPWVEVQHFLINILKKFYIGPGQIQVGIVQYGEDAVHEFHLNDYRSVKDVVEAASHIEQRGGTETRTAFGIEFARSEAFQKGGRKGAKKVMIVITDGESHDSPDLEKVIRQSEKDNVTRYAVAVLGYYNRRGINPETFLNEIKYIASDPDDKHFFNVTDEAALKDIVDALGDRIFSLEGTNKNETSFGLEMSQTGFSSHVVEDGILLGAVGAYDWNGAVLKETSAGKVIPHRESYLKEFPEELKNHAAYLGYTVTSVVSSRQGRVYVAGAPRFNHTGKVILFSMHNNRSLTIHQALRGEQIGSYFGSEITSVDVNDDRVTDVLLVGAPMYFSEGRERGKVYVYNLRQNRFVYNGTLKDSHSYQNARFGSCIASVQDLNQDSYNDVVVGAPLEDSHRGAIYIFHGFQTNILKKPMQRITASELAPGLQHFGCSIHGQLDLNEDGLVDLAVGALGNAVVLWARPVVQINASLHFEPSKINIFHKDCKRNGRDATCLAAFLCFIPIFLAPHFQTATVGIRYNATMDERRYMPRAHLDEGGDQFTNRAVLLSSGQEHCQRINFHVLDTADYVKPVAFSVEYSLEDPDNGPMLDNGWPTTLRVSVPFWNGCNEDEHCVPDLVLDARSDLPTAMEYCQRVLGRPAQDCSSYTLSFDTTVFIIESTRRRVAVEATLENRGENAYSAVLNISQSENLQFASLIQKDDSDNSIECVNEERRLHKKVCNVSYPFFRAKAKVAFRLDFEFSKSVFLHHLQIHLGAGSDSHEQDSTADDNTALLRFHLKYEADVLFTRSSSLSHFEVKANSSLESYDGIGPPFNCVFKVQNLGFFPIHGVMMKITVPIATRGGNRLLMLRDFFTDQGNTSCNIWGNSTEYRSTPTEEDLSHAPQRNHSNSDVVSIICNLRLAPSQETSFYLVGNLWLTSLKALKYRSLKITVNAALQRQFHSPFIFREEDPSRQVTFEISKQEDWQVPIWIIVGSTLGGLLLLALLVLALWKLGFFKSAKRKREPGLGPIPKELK", "experiment": "flow cytometry, 34 nM antibody on CHO cells expressing murine ITGA11", "protocol": "(§1) Antibody binding to C2C12 cells expressing human ITGA11 or CHO cells expressing murine ITGA11 was performed by incubating the cells with the antibodies at a concentration of 34 nM for 1 hour at 4° C. in binding medium (PBS, 10% normal goat serum, 2% rabbit serum, and 1% BSA). Cells were washed in binding medium and binding was detected using goat-anti-human Fc BV421 (Jackson ImmunoLabs). After washing the cells were resuspended in binding medium and binding was assessed by flow cytometry. 226 antibodies were screened and the binding characteristics of 10 antibodies are presented below. The results are provided in Table 2 and are expressed as mean fluorescence intensity (MFI)."}, "[2]": {"biological_target": "T2, human ITGA11 expressed in mouse C2C12 cells (human, UniProt Q9UKX5 23-1188)", "T2 construct": "whole, on cells; also called integrin α11; C2C12 cells expressing human ITGA11", "T2 sequence (looked up)": "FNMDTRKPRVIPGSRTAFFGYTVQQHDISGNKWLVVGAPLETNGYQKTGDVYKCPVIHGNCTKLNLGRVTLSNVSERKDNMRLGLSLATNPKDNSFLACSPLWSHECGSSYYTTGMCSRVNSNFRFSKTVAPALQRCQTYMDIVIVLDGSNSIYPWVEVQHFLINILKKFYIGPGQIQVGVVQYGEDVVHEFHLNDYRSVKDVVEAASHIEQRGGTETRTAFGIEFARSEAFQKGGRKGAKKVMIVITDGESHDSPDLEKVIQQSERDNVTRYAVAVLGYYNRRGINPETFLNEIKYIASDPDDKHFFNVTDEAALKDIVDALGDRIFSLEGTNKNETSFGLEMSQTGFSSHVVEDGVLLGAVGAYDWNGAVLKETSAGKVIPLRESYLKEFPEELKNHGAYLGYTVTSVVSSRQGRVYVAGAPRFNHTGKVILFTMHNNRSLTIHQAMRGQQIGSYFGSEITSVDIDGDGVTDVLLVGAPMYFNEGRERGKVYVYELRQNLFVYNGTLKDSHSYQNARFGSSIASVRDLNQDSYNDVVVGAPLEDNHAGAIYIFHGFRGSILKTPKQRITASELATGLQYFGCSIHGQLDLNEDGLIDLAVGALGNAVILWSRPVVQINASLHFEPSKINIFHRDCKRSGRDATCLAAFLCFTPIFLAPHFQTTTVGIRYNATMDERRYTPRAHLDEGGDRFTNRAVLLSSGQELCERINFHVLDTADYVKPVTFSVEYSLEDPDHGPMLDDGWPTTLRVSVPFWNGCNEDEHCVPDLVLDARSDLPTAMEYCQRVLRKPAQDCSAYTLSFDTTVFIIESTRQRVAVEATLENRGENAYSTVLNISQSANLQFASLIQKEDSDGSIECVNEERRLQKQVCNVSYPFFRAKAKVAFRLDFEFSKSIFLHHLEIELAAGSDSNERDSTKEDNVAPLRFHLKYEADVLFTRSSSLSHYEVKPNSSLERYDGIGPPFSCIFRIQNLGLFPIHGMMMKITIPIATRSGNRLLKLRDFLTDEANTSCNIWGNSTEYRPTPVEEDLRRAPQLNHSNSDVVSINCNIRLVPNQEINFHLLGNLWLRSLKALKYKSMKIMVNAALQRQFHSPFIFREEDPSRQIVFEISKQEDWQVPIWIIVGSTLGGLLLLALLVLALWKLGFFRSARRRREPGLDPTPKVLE", "experiment": "flow cytometry, 34 nM antibody on C2C12 cells expressing human ITGA11", "protocol": "as §1"}}, "data": [{"binder": "mAb FIB-918-4 (antibody, human IgG4, V domains shown) VH: QVQLVQSGAEVKKPGATVKISCKVSGYTFTDYYMHWVRQAPGKGLEWMGGFDPEDGETIYAQKFQGRVTMTEDTSTDTAYMELSSLRSEDTAVYYCATLDYRGVVYFDYWGQGTLVTVSS VL: NFMLTQPHSVSDSPGKTVTISCTGSSGSIASNYVQWYQQRPGSAPTTVIYEDKRRPSGVPDRFIGSIDSSSNSASLTISGLRTEDEADYYCQSYDSSNHWVFGGGTQLTVLG", "values": [{"measurement": "MFI", "setting": "[1]", "value": 4570, "unit": "MFI"}, {"measurement": "MFI", "setting": "[2]", "value": 15700, "unit": "MFI"}]}, {"binder": "mAb FIB-918-9 (antibody, V domains shown) VH: EVQLVESGGGLVQPGGSLRLSCLASGFTFSDYWMAWVRQAPGKGLEWVSAISGSGGSTYYADSVKGRFTISRDNSKNTLYLQMNSLRAEDTAVYYCAKDLLWAARDAFDIWGQGTLVTVSS VL: not shown", "values": [{"measurement": "MFI", "setting": "[1]", "value": 2030, "unit": "MFI"}, {"measurement": "MFI", "setting": "[2]", "value": 1450, "unit": "MFI"}]}, {"binder": "mAb FIB-918-10 (antibody, human IgG4, V domains shown) VH: not shown VL: AIQLTQSPSTLSASVGDRVTITCRASQGINDFLAWYQQKPGKAPKLLIYAASSLQSGVPSRFSGSGSGTDFTLTISSLQPEDFATYYCQQSYSTPLTFGGGTKVEIKR", "values": [{"measurement": "MFI", "setting": "[1]", "value": 8570, "unit": "MFI"}, {"measurement": "MFI", "setting": "[2]", "value": 10600, "unit": "MFI"}]}, {"binder": "mAb FIB-918-2 (antibody, human IgG4, V domains shown) VH: not shown VL: NIQMTQSPSSLSASVGDRVTITCRASQTIGSYLNWYQQKPGTAPKLLIYGASTSHTWVPSRFTGGGSGTEFTLTISSLQSEDFATYYCQQSYSTPFTFGGGTKLEIKR", "values": [{"measurement": "MFI", "setting": "[1]", "value": 12600, "unit": "MFI"}, {"measurement": "MFI", "setting": "[2]", "value": 30400, "unit": "MFI"}]}, {"binder": "mAb FIB-918-8 (antibody, V domains shown) VH: EVQLVESGGGVVRPGGPLRLSCAASGFTFSNAWMSWVRQAPGKGLEWVSAISGSGGSTYYADSVKGRFTISRDNSKNTLYLQMNSLRAEDTAIYYCAKQTVTSADDYFDYWGQGTLVTVSS VL: not shown", "values": [{"measurement": "MFI", "setting": "[1]", "value": 32900, "unit": "MFI"}, {"measurement": "MFI", "setting": "[2]", "value": 41500, "unit": "MFI"}]}, {"binder": "mAb FIB-918-6 (antibody, V domains shown) VH: EVQLLESGGDLVKAGGSLRLSCAASGFTFSNAWMSWVRQAPGKGLEWVSGISGSGGSTYYADSVKGRFTISRDNSKNTLYLQMNSLRAEDTAVYYCARDRGYSYSETSNDAFDIWGRGTLVTVSS VL: not shown", "values": [{"measurement": "MFI", "setting": "[1]", "value": 9410, "unit": "MFI"}, {"measurement": "MFI", "setting": "[2]", "value": 7880, "unit": "MFI"}]}, {"binder": "mAb FIB-918-3 (antibody, human IgG4, V domains shown) VH: EVQLVESGGGLVQPGGSLRLSCAASGFTFSSYSMNWVRQAPGKGLEWVSYISSSSSTIYYADSVKGRFTISRDNAKNSLYLQMNSLRAEDTAVYYCARGPDLSDYFDYWGRGTLVTVSS VL: not shown", "values": [{"measurement": "MFI", "setting": "[1]", "value": 1520, "unit": "MFI"}, {"measurement": "MFI", "setting": "[2]", "value": 5220, "unit": "MFI"}]}, {"binder": "mAb FIB-918-7 (antibody, human IgG4, V domains shown) VH: EVQLVESGGGLVQPGGSLRLSCAASGFMFDTHAMSWVRQAPGKGLEWVSSISGSGGSIYYADSVKGRFTISRDNSKNTLYLQMNSLRAEDTAVYYCARSGETAGTDYFDYWGQGTLVTVSS VL: EIVMTQSPATLSLSPGERATLSCRASQSVSSSYLSWYQQKPGQAPRLLIYGASTRATGIPARFSGSGSGTDFTLTISSLQPEDFAVYYCQQDYNSPYTFGQGTKVDIKR", "values": [{"measurement": "MFI", "setting": "[1]", "value": 21300, "unit": "MFI"}, {"measurement": "MFI", "setting": "[2]", "value": 7870, "unit": "MFI"}]}]}
